The values that follow come from patent US20100080799.

The target in series [1] is recombinant H2A.X (WT), N-terminal 6xHis tag.
In series [2] the target is recombinant H2A.X Y142F, N-terminal 6xHis tag.

B1: recombinant WSTF 1-345 construct (protein)
chain: MAPLLGRKPFPLVKPLPGEEPLFTIPHTQEAFRTREEYEARLERYSERIWTCKSTGSSQLTHKEAWEEEQEVAELLKEEFPAWYEKLVLEMVHHNTASLEKLVDTAWLEIMTKYAVGEECDFEVGKEKMLKVKIVKIHPLEKVDEEATEKKSDGACDSPSSDKENSSQIAQDHQKKETVVKEDEGRRESINDRARRSPRKLPTSLKKGERKWAPPKFLPHKYDVKLQNEDKIISNVPADSLIRTERPPNKEIVRYFIRHNALRAGTGENAPWVVEDELVKKYSLPSKFSDFLLDPYKYMTLNPSTKRKNTGSPDRKPSKKSKTDNSSLSSPLNPKLWCHVHLKKS
As to B1, the “kinase activity (in vitro kinase assay)” value in series [1] is on record as “the 1-345 amino acid construct of WSTF had much more potent kinase activity (>50 fold) than the 1-340 construct”. In addition, the “in vitro kinase assay” value in series [2] is “its activity towards a Y142F mutant was much reduced”.

B2: recombinant WSTF 1-359 C338A point mutant (protein)
chain: MAPLLGRKPFPLVKPLPGEEPLFTIPHTQEAFRTREEYEARLERYSERIWTCKSTGSSQLTHKEAWEEEQEVAELLKEEFPAWYEKLVLEMVHHNTASLEKLVDTAWLEIMTKYAVGEECDFEVGKEKMLKVKIVKIHPLEKVDEEATEKKSDGACDSPSSDKENSSQIAQDHQKKETVVKEDEGRRESINDRARRSPRKLPTSLKKGERKWAPPKFLPHKYDVKLQNEDKIISNVPADSLIRTERPPNKEIVRYFIRHNALRAGTGENAPWVVEDELVKKYSLPSKFSDFLLDPYKYMTLNPSTKRKNTGSPDRKPSKKSKTDNSSLSSPLNPKLWAHVHLKKSLSGSPLKVKNSKNS
Consider B2, for which the “kinase activity (in vitro kinase assay)” value in series [1] is on record as “the activity of a point mutant at C338 (C338A) was greatly diminished (<50 fold, FIG. 3F)”.

B3: co-expressed N-motif and C-motif of the WSTF kinase domain (protein)
chain 1: MAPLLGRKPFPLVKPLPGEEPLFTIPHTQEAFRTREEYEARLERYSERIWTCKSTGSSQLTHKEAWEEEQEVAELLKEEFPAWYEKLVLEMVHHNTASLEKLVDTAWLEIMTKYAVGEECDFEVGKEKMLKVKIVKIHPLEKVDEEATEKKSDGACDSPSSDKENSSQIAQDHQKKETVVKEDEGRRESINDRARRSPRKLPTSL
chain 2: GERKWAPPKFLPHKYDVKLQNEDKIISNVPADSLIRTERPPNKEIVRYFIRHNALRAGTGENAPWVVEDELVKKYSLPSKFSDFLLDPYKYMTLNPSTKRKNTGSPDRKPSKKSKTDNSSLSSPLNPKLWCHVHLKKS
B3: the “kinase activity (in vitro kinase assay)” value in series [1] was “The co-expressed N-motif and C-motif had significant kinase activity towards H2A.X”.

B4: recombinant WSTF 1-340 construct (protein)
chain: MAPLLGRKPFPLVKPLPGEEPLFTIPHTQEAFRTREEYEARLERYSERIWTCKSTGSSQLTHKEAWEEEQEVAELLKEEFPAWYEKLVLEMVHHNTASLEKLVDTAWLEIMTKYAVGEECDFEVGKEKMLKVKIVKIHPLEKVDEEATEKKSDGACDSPSSDKENSSQIAQDHQKKETVVKEDEGRRESINDRARRSPRKLPTSLKKGERKWAPPKFLPHKYDVKLQNEDKIISNVPADSLIRTERPPNKEIVRYFIRHNALRAGTGENAPWVVEDELVKKYSLPSKFSDFLLDPYKYMTLNPSTKRKNTGSPDRKPSKKSKTDNSSLSSPLNPKLWCHV
On to B4, for which the “kinase activity (in vitro kinase assay)” value in series [1] is reported as “the activity of the 1-340 amino acid construct was much reduced (<50 fold) in comparison to the other constructs”.

B5: recombinant full length human WSTF (Flag-epitope-tagged at C terminus) (protein)
chain: MAPLLGRKPFPLVKPLPGEEPLFTIPHTQEAFRTREEYEARLERYSERIWTCKSTGSSQLTHKEAWEEEQEVAELLKEEFPAWYEKLVLEMVHHNTASLEKLVDTAWLEIMTKYAVGEECDFEVGKEKMLKVKIVKIHPLEKVDEEATEKKSDGACDSPSSDKENSSQIAQDHQKKETVVKEDEGRRESINDRARRSPRKLPTSLKKGERKWAPPKFLPHKYDVKLQNEDKIISNVPADSLIRTERPPNKEIVRYFIRHNALRAGTGENAPWVVEDELVKKYSLPSKFSDFLLDPYKYMTLNPSTKRKNTGSPDRKPSKKSKTDNSSLSSPLNPKLWCHVHLKKSLSGSPLKVKNSKNSKSPEEHLEEMMKMMSPNKLHTNFHIPKKGPPAKKPGKHSDKPLKAKGRSKGILNGQKSTGNSKSPKKGLKTPKTKMKQMTLLDMAKGTQKMTRAPRNSGGTPRTSSKPHKHLPPAALHLIAYYKENKDREDKRSALSCVISKTARLLSSEDRARLPEELRSLVQKRYELLEHKKRWASMSEEQRKEYLKKKREELKKKLKEKAKERREKEMLERLEKQKRYEDQELTGKNLPAFRLVDTPEGLPNTLFGDVAMVVEFLSCYSGLLLPDAQYPITAVSLMEALSADKGGFLYLNRVLVILLQTLLQDEIAEDYGELGMKLSEIPLTLHSVSELVRLCLRRSDVQEESEGSDTDDNKDSAAFEDNEVQDEFLEKLETSEFFELTSEEKLQILTALCHRILMTYSVQDHMETRQQMSAELWKERLAVLKEENDKKRAEKQKRKEMEAKNKENGKVENGLGKTDRKKEIVKFEPQVDTEAEDMISAVKSRRLLAIQAKKEREIQEREMKVKLERQAEEERIRKHKAAAEKAFQEGIAKAKLVMRRTPIGTDRNHNRYWLFSDEVPGLFIEKGWVHDSIDYRFNHHCKDHTVSGDEDYCPRSKKANLGKNASMNTQHGTATEVAVETTTPKQGQNLWFLCDSQKELDELLNCLHPQGIRESQLKERLEKRYQDIIHSIHLARKPNLGLKSCDGNQELLNFLRSDLIEVATRLQKGGLGYVEETSEFEARVISLEKLKDFGECVIALQASVIKKFLQGFMAPKQKRRKLQSEDSAKTEEVDEEKKMVEEAKVASALEKWKTAIREAQTFSRMHVLLGMLDACIKWDMSAENARCKVCRKKGEDDKLILCDECNKAFHLFCLRPALYEVPDGEWQCPACQPATARRNSRGRNYTEESASEDSEDDESDEEEEEEEEEEEEEDYEVAGLRLRPRKTIRGKHSVIPPAARSGRRPGKKPHSTRRSQPKAPPVDDAEVDELVLQTKRSSRRQSLELQKCEEILHKIVKYRFSWPFREPVTRDEAEDYYDVITHPMDFQTVQNKCSCGSYRSVQEFLTDMKQVFTNAEVYNCRGSHVLSCMVKTEQCLVALLHKHLPGHPYVRRKRKKFPDRLAEDEGDSEPEAVGQSRGRRQKK
For the protein B5, in series [1], the “in vitro kinase assay” value is given as “Full length recombinant WSTF proteins isolated from insect cells phosphorylated free H2A.X protein in the presence of Mn^2+” and the “in vitro kinase assay (32P autoradiography)” value is given as “The recombinant full length WSTF protein phosphorylated H2A.X-containing nucleosomes”. In addition, the “in vitro kinase assay (32P autoradiography)” value in series [2] is given as “WSTF phosphorylated the WT but not Y142F H2A.X”.
